Consider 35 variants from the Human Domainome abundance scans (Beltran et al. 2025).

B1: Protein S100-G, residues 1 to 79; numbered along this chain, P02633 (parent)
chain: MSAKKSPEELKGIFEKYAAKEGDPNQLSKEELKLLLQTEFPSLLKGPSTLDELFEELDKNGDGEVSFEEFQVLVKKISQ

± gives the uncertainty stated by the source.

Variants of B1 are the subject of this data set. The data set can be described thus: abundance fitness (aPCA) (normalised: wild type 0, dead -1); higher = more abundant; growth selection in yeast, the domain comes from the species named. As to conditions: Bos taurus.
MSAKKSPEELKGIFEKYAAKEGDPNQLSKEELKLLLQTEFPSLLKGPSTLDEAFEELDKNGDGEVSFEEFQVLVKKISQ: the abundance fitness worked out at 0.055 ± 0.069.
In the case of MSAKKSPEELKGIFEKYAAKEGDPNQLSKEELKLLLQTEFPSLLKGPSTLDEMFEELDKNGDGEVSFEEFQVLVKKISQ it was 0.015 ± 0.08; in that of MSAKKSPEELKGIFEKYAAKEGDPNQLSKEELKLLLQTEFPSLLKGPSTLDEIFEELDKNGDGEVSFEEFQVLVKKISQ, 0.041 ± 0.087.
Take MSAKKSPEELKGIFEKYAAKEGDPNQLSKEELKLLLQTEFPSLLKGPSTLDEPFEELDKNGDGEVSFEEFQVLVKKISQ: the abundance fitness is 0.033 ± 0.076.
Regarding MSAKKSPEELKGIFEKYAAKEGDPNQLSKEELKLLLQTEFPSLLKGPSTLDEFFEELDKNGDGEVSFEEFQVLVKKISQ, the abundance fitness stood at 0.077 ± 0.087.
For MSAKKSPEELKGIFEKYAAKEGDPNQLSKEELKLLLQTEFPSLLKGPSTLDEWFEELDKNGDGEVSFEEFQVLVKKISQ, the abundance fitness came to 0.013 ± 0.073.
As to MSAKKSPEELKGIFEKYAAKEGDPNQLSKEELKLLLQTEFPSLLKGPSTLDEYFEELDKNGDGEVSFEEFQVLVKKISQ, the abundance fitness is -0.036 ± 0.084.
To MSAKKSPEELKGIFEKYAAKEGDPNQLSKEELKLLLQTEFPSLLKGPSTLDEDFEELDKNGDGEVSFEEFQVLVKKISQ belongs 0.053 ± 0.094; to MSAKKSPEELKGIFEKYAAKEGDPNQLSKEELKLLLQTEFPSLLKGPSTLDECFEELDKNGDGEVSFEEFQVLVKKISQ, -0.048 ± 0.08.
To MSAKKSPEELKGIFEKYAAKEGDPNQLSKEELKLLLQTEFPSLLKGPSTLDEEFEELDKNGDGEVSFEEFQVLVKKISQ belongs 0.031 ± 0.088; to MSAKKSPEELKGIFEKYAAKEGDPNQLSKEELKLLLQTEFPSLLKGPSTLDEVFEELDKNGDGEVSFEEFQVLVKKISQ, 0.028 ± 0.066.
For the variant MSAKKSPEELKGIFEKYAAKEGDPNQLSKEELKLLLQTEFPSLLKGPSTLDETFEELDKNGDGEVSFEEFQVLVKKISQ, the abundance fitness is 0.036 ± 0.068.
Regarding MSAKKSPEELKGIFEKYAAKEGDPNQLSKEELKLLLQTEFPSLLKGPSTLDENFEELDKNGDGEVSFEEFQVLVKKISQ, the abundance fitness stood at 0.109 ± 0.085.
As for MSAKKSPEELKGIFEKYAAKEGDPNQLSKEELKLLLQTEFPSLLKGPSTLDEQFEELDKNGDGEVSFEEFQVLVKKISQ, the abundance fitness is 0.028 ± 0.079.
Turning to MSAKKSPEELKGIFEKYAAKEGDPNQLSKEELKLLLQTEFPSLLKGPSTLDEHFEELDKNGDGEVSFEEFQVLVKKISQ, the abundance fitness worked out at 0.026 ± 0.075.
Take MSAKKSPEELKGIFEKYAAKEGDPNQLSKEELKLLLQTEFPSLLKGPSTLDEGFEELDKNGDGEVSFEEFQVLVKKISQ: the abundance fitness is -0.065 ± 0.069.
Consider MSAKKSPEELKGIFEKYAAKEGDPNQLSKEELKLLLQTEFPSLLKGPSTLDELSEELDKNGDGEVSFEEFQVLVKKISQ, for which the abundance fitness was 0.023 ± 0.062.
With MSAKKSPEELKGIFEKYAAKEGDPNQLSKEELKLLLQTEFPSLLKGPSTLDELGEELDKNGDGEVSFEEFQVLVKKISQ, the abundance fitness is -0.038 ± 0.071.
Take MSAKKSPEELKGIFEKYAAKEGDPNQLSKEELKLLLQTEFPSLLKGPSTLDELREELDKNGDGEVSFEEFQVLVKKISQ: the abundance fitness was -0.093 ± 0.063.
Consider MSAKKSPEELKGIFEKYAAKEGDPNQLSKEELKLLLQTEFPSLLKGPSTLDELLEELDKNGDGEVSFEEFQVLVKKISQ, for which the abundance fitness was found to be 0.04 ± 0.06.
In the case of MSAKKSPEELKGIFEKYAAKEGDPNQLSKEELKLLLQTEFPSLLKGPSTLDELCEELDKNGDGEVSFEEFQVLVKKISQ it was -0.004 ± 0.08.
In the case of MSAKKSPEELKGIFEKYAAKEGDPNQLSKEELKLLLQTEFPSLLKGPSTLDELHEELDKNGDGEVSFEEFQVLVKKISQ it was -0.054 ± 0.083.
To MSAKKSPEELKGIFEKYAAKEGDPNQLSKEELKLLLQTEFPSLLKGPSTLDELNEELDKNGDGEVSFEEFQVLVKKISQ belongs 0.039 ± 0.084.
For the variant MSAKKSPEELKGIFEKYAAKEGDPNQLSKEELKLLLQTEFPSLLKGPSTLDELWEELDKNGDGEVSFEEFQVLVKKISQ, the abundance fitness was 0.04 ± 0.078.
In the case of MSAKKSPEELKGIFEKYAAKEGDPNQLSKEELKLLLQTEFPSLLKGPSTLDELDEELDKNGDGEVSFEEFQVLVKKISQ it was 0.035 ± 0.088.
On to MSAKKSPEELKGIFEKYAAKEGDPNQLSKEELKLLLQTEFPSLLKGPSTLDELEEELDKNGDGEVSFEEFQVLVKKISQ, for which the abundance fitness was -0.033 ± 0.084.
To MSAKKSPEELKGIFEKYAAKEGDPNQLSKEELKLLLQTEFPSLLKGPSTLDELIEELDKNGDGEVSFEEFQVLVKKISQ belongs 0.051 ± 0.08.
To MSAKKSPEELKGIFEKYAAKEGDPNQLSKEELKLLLQTEFPSLLKGPSTLDELMEELDKNGDGEVSFEEFQVLVKKISQ belongs 0.007 ± 0.076; to MSAKKSPEELKGIFEKYAAKEGDPNQLSKEELKLLLQTEFPSLLKGPSTLDELPEELDKNGDGEVSFEEFQVLVKKISQ, -0.073 ± 0.073; to MSAKKSPEELKGIFEKYAAKEGDPNQLSKEELKLLLQTEFPSLLKGPSTLDELYEELDKNGDGEVSFEEFQVLVKKISQ, 0.064 ± 0.083.
In the case of MSAKKSPEELKGIFEKYAAKEGDPNQLSKEELKLLLQTEFPSLLKGPSTLDELQEELDKNGDGEVSFEEFQVLVKKISQ it was 0.004 ± 0.079; in that of MSAKKSPEELKGIFEKYAAKEGDPNQLSKEELKLLLQTEFPSLLKGPSTLDELAEELDKNGDGEVSFEEFQVLVKKISQ, -0.007 ± 0.068; in that of MSAKKSPEELKGIFEKYAAKEGDPNQLSKEELKLLLQTEFPSLLKGPSTLDELVEELDKNGDGEVSFEEFQVLVKKISQ, -0.015 ± 0.065.
Turning to MSAKKSPEELKGIFEKYAAKEGDPNQLSKEELKLLLQTEFPSLLKGPSTLDELTEELDKNGDGEVSFEEFQVLVKKISQ, the abundance fitness was 0.03 ± 0.068.
Consider MSAKKSPEELKGIFEKYAAKEGDPNQLSKEELKLLLQTEFPSLLKGPSTLDELKEELDKNGDGEVSFEEFQVLVKKISQ, for which the abundance fitness is -0.048 ± 0.076.
